This note sets out measurements from patent US20170275359A1 (Genentech, published 2017).

Sequences and labels used below:
B1: anti-EphrinB2 monoclonal antibody clone 31.19 (antibody, V domains shown)
VH: EVQLVESGGGLVQPGGSLRLSCAASGFTITGSWIHWVRQAPGKGLEWVAVIYPNNGATDYADSVKGRFTISADTSKNTAYLQMNSLRAEDTAVYYCARTSAWAQLGAMDYWGQGTLVT
VL: DIQMTQSPSSLSASVGDRVTITCRASQDVSTAVAWYQQKPGKAPKLLIYSASFLYSGVPSRFSGSGSGTDFTLTISSLQPEDFATYYCQQSYTTPPTFGQGTKVEIKR
notes: Synthetic phage antibody on the humanized 4D5 framework; also called YW31.19; 31.19 antibody
B2: anti-EphrinB2 monoclonal antibody clone 31.19.2D3 (antibody, V domains shown)
VH: B1 VH with I29V, T30S, G31S, S32G, Y52F, P53H, N55K, A57G
VL: B1 VL with Q89E, S91T, Y92D, T93S
notes: also called YW31.19.2D3; 31.19.2D3 antibody
B3: anti-EphrinB2 monoclonal antibody clone 31.19.1D8 (antibody, V domains shown)
VH: B1 VH
VL: DIQMTQSPSSLSASVGDRVTITCRASQDVDSSLAWYQQKPGKAPKLLIYAASNLESGVPSRFSGSGSGTDFTLTISSLQPEDFATYYCQQSDDNPFTFGQGTKVEIKR
notes: also called YW31.19.1D8; 31.19.1D8 antibody

Residue numbers refer to the chain shown, from its start.

The target in the first test is T1, human EphrinB2-His (human, UniProt P52799 28-229, limits assumed).
T1 construct: Soluble His-tagged protein; also called His-tagged human EphrinB2; hEphrinB2; not shown: His tag
T1 sequence (P52799 28-229 limits assumed): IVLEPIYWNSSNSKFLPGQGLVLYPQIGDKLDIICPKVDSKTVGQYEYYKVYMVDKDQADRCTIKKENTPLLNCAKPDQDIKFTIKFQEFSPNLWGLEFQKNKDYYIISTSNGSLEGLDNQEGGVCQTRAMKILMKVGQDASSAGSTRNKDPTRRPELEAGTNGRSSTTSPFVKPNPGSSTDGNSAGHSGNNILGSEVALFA
Description: SPR BIAcore-3000, antibody coupled to CM5 chip (~500 RU), EphrinB2-His injected, 25 C. As to the method:
(§1) To determine the binding affinity of mouse anti-ephrinB2 Mabs, surface plasmon resonance (SRP) measurement with a BIAcore™-3000 was used (BIAcore, Inc., Piscataway, N.J.). Briefly, carboxymethylated dextran biosensor chips (CMS, BIAcore Inc.) were activated with N-ethyl-N′- (3-dimethylaminopropyl)-carbodiimide hydrochloride (EDC) and N-hydroxysuccinimide (NHS) according to the supplier's instructions. Anti-EphrinB2 antibody was diluted with 10 mM sodium acetate, pH 4.8, into 5 ug/ml before injection at a flow rate of 5 ul/minute to achieve approximately 500 response units (RU) of coupled antibody. Next, 1M ethanolamine was injected to block unreacted groups. For kinetics measurements, two-fold serial dilutions of either human or murine EphrinB2-His molecules (0.7 nM to 500 nM) were injected in PBS with 0.05% Tween 20 at 25° C. at a flow rate of 25 ul/min. Association rates (kₒₙ) and dissociation rates (koff) were calculated using a simple one-to-one Langmuir binding model (BlAcore Evaluation Software version 3.2). The equilibrium dissociation constant (Kd) was calculated as the ratio koff/kₒₙ. “NA” signifies that the measurement was not performed.
(In SPR one partner is held on a chip, and binding of the other changes the refractive index at the surface.)
Usually Kd stands for a measure of binding affinity in units of concentration. Consider B1, for which the affinity, expressed as Kd, was 5200 pM.
On the same count and under the same terms, then B2, with 80 pM.
B3 had a Kd of 70 pM.

The target of another test is T2, murine EphrinB2-His (murine, UniProt P52800 29-232, limits assumed).
T2 construct: Soluble His-tagged protein; also called His-tagged murine EphrinB2; murine antigen; not shown: His tag
T2 sequence (P52800 29-232 limits assumed): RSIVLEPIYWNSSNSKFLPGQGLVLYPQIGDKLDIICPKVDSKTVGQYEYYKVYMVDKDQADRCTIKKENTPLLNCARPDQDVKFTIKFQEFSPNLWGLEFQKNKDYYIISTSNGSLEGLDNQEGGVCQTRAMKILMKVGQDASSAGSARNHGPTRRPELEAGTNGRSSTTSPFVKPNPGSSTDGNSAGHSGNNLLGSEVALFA
The description is as above. As to the method:
as §1
The molecule B1 came in with a dissociation constant (Kd) of 230 pM.
For the molecule B2, the equilibrium dissociation constant (Kd) was found to be 15 pM.
Same read-out and setting: then B3, with 17 pM.
